Literature values in publication PMC3798119.

Target: basigin (CD147) (Homo sapiens) (UniProt P35613)
UniProt P35613, sequence (P35613 22-325): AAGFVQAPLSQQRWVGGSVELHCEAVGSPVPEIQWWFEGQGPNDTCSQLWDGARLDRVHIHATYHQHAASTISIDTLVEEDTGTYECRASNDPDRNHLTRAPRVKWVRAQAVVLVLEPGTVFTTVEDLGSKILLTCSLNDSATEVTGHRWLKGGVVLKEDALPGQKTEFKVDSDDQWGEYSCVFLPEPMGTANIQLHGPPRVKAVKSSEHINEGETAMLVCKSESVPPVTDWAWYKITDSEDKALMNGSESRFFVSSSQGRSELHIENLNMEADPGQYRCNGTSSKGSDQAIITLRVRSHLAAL

For RH5 (from UniProt Q8IFM5), the Kd is given as 1100 nM.
